Target: mouse TLR5 (toll-like receptor 5) expressed on HEK293/mTLR5 cell line (mouse) (UniProt Q9JLF7)
Test: cell-based or functional assay

UniProt Q9JLF7, sequence (Q9JLF7 27-859): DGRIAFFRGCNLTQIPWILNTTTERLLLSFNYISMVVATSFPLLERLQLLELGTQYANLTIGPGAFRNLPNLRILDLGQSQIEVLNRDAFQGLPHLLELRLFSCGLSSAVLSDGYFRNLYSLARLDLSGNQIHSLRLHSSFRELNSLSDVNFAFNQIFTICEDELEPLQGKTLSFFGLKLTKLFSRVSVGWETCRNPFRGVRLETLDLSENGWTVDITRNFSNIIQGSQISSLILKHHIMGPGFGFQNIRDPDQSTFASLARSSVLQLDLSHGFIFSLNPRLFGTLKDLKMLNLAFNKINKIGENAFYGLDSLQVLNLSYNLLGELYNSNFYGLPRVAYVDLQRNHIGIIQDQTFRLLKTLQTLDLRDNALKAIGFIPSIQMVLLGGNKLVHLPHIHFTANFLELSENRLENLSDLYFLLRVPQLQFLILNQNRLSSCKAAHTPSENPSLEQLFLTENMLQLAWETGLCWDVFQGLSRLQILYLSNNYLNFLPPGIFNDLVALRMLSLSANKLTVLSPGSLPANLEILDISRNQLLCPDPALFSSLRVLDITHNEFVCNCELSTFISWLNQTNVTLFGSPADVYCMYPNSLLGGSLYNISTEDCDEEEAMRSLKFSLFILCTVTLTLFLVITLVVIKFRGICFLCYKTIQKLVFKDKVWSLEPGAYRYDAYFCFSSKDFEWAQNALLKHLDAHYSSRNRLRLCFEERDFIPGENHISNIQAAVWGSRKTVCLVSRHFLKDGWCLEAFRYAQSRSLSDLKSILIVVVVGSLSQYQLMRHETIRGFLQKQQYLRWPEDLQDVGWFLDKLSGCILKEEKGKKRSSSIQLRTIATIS

Substance: sgFliC (Salmonella gallinarum-derived FliC, filament structural protein, expressed from psgFliC and secreted by attenuated Salmonella gallinarum SG4052) (from UniProt Q06972 1-494) (ligand)
- QUANTI-Blue SEAP assay using HEK293/mTLR5 cell line (TLR5 stimulation relative to FLA-ST): 2 fold

— US20240240140A1
